According to the DeepSol protein solubility set:

Experiment: soluble on expression in E. coli; label from the status in PepcDB or PDB records

With “MAGDPMTIYEQHFIFSDRIVPIRVRENKYARRLILRIDARGREICVTTPPAINLYSIQGFIAKHQSWIEARLARVQIAHANSYLKEGTKIPLLGIPHTIQRKEGRGITEIVAGDVRQEPKIVVYGQLEYLPRRIADVLKKQAALIITPLVKCYARKVERKVKSICYKDTKSRWGSCSIHGNLSFSWRLVMAPQEVIEYVVAHEVAHLIEMNHGPKFWALCEKLCPKSEAYRTWLKENGHMLQAVNFHSYRLEILEHHHHHH” the “soluble on expression in E. coli” value was “soluble”.
In the case of “MGSDKIHHHHHHMSGFLAVKFPVKEASVADQQDFLGRFDAMSSKATATVIAHYSSSFTLASKLLSPKIRRDIEALYAMVRVADEVVDGAAAAAGCAPDAVAEILDNYERQVLLSLSVPFHTDPVIHAFGNTARKCGFEQAHIVAFFDSMRRDLSQTSYDPTQLDEYIYGSAEVIGLMCLKIFLQDSTASPQDRATMEHGARRLGAAFQKVNFLRDLAEDREGLGRSYLPVFTEEMRDEIVTDIREDLDAARLSIPLLPFGARTGVRAATDLYGCLVDNLESASLEDLKNGRIRVPSMKKASLATKAMWKEVFQK”, the “soluble on expression in E. coli” value is reported as “not soluble”.
For “MTEYGGGEVYLLDLDSVVDGSALRMISSGGLRGRVLIHSALVDYLYSEAKRGRSAGYAGLAELSRLMDAGVGDVEIVVVEDDARVQPRDEGELKSVLRRYALRVGATLVTSDPVQARAARALGVSVLFTGRSRTGRIRIEE”, the “soluble on expression in E. coli” value was “not soluble”.
With “MGSDKIHHHHHHMNILLVYKEDYPWDVRVEKIALSLISRGHDVTIVARNRQCSKTTETVNGIEIVRLPALFKPDGLLNKLLNLPVWFNPFWIWTLRSALRGKPGALIIVRDLPLVKTALLVARGARAKIMLDMAEVYPYMYESGRQFSKGTNFESMIKSPALAARYEAKVLPKIDHTLVMIEESRDRLLQMGLSPQRVSIVSNTPPLDKFSGNTHQHQGRKLRLVYVGFLTKLRGLDLLIEAAYEYVKLGNEPSSLKIDIVGKGAEREHLIALVRDLKLEESVTIHGWLDHQRVDELMAQANVGALTYRVCPHWNHTIPNKIFDYMLAGLPVLATEVTPINRIINETKSGLVCRDLDIRDIAEKLQTLRCPELRSTLGNNGVNAVRAKYNWANDEQRLHAAVNSIAP” the “soluble on expression in E. coli” value was “not soluble”.
In the case of “MGSDKIHHHHHHMRYRRFGRTELAMPVFSCGGMRYQQSWKDVDWPEISVESQANLEATLARSLELGINHIETARYYGSSERQLGKALAAYPRSEIILQTKVPPSEDPAEFLETFDRSMSLLQTDYVDLLSIHGVNNAELLDWALRKGGSLDVAERLQAEGRVRHIGFSTHAPLPVILEAIASDRLSYINLHWYYIFQTNQAALEAAQKHDMGVFIISPSDKGGHLYSPPQKLVDLCEPLHPMVFNDLFCLSQPQIHTLSIGAARPSDFDRHLETLPLLDQADQVLPPILERLEAAATAALGQDWLDTWMVGLPTPDTTPGEINIPTIVWLYNLVQAFDMVKYAKARYNLLGNGGHWFPGQRAGQFDPVALSAALDQSPHRDRILQILKEMDAWLGGESVVRLSQSS”, the “soluble on expression in E. coli” value is reported as “not soluble”.
In the case of “NKDLLWTTSLNIGHNKNKLTKLDGEQQEIISGVSIHRVGQPYYSIYAYEYAGVDPQTGKELYYINGEDGSRETTTNSAAANKTIIGSIEPKVQGGLTNYVSWKFIDFNLTLTYSLGGHAYDYATWLQSNGGTYHYLGNVPAYYKMEDTWQKTGDNAKLPQFAYGNANKASSRWLMSTDHLRVKNMTLGFTLPQSWSSKAGISKLRAYVSGNNLLTWKKKSLYVDPEVPVDGLCTFETPALRTVTFGLEIGF”, the “soluble on expression in E. coli” value is reported as “not soluble”.
For “GPLGSMPEVRFQQQLEQLNSMGFINREANLQALIATGGDINAAIERLLGSQLS”, the “soluble on expression in E. coli” value was “soluble”.
For “MSEIHAGGCHCGRLRYQFDAPLKDIAHCHCSICWRTSGATVVTWISVPLASFKWLTGSPAAYDSAATCVRYFCGNCGAHMALFTRNSPNEMDVTIATLDQPELAVPSRHIWIENRLPWLHLDEDLPGDEGEP”, the “soluble on expression in E. coli” value was “not soluble”.
For “MSDAGGDVQVAPAAVAQGPMDKEGALRAVLRAAHHADGLAKGLHETCKALDKREAHFCVLAENCDEPQYVKLVETLCAEHQIPLIKVADKKIIGEYCGLCKYDKEGKARKVVGCSSAVVTNWGNEEQGRAILTDYFASKN”, the “soluble on expression in E. coli” value was “not soluble”.
In the case of “MESKLNLDFNLVEKARAKAKAIAIDTQEFIEKHTTVTVERAVCRLLGIDGVDTDEVPLPNIVVDHIKENNGLNLGAAMYIANAVLNTGKTPQEIAQAISAGELDLTKLPMKDLFEVKTKALSMAKETVEKIKNNRSIRESRFEEYGDKSGPLLYVIVATGNIYEDITQAVAAAKQGADVIAVIRTTGQSLLDYVPYGATTEGFGGTYATQENFRLMREALDKVGAEVGKYIRLCNYCSGLCMPEIAAMGAIERLDVMLNDALYGILFRDINMQRTMIDQNFSRIINGFAGVIINTGEDNYLTTADAFEEAHTVLASQFINEQFALLAGLPEEQMGLGHAFEMDPELKNGFLYELSQAQMAREIFPKAPLKYMPPTKFMTGNIFKGHIQDALFNMVTIMTNQRIHLLGMLTEALHTPFMSDRALSIENAQYIFNNMESISEEIQFKEDGLIQKRAGFVLEKANELLEEIEQLGLFDTLEKGIFGGVKRPKDGGKGLNGVVSKDENYYNPFVELMLNK”, the “soluble on expression in E. coli” value is reported as “soluble”.
With “MKREDLLRHLAETEVWDMIVIGGGATGLGTAVEAAGRGYRTLLLEQGDFAQGTSSRSTKLIHGGVRYLQQGNLTLVLEALRERGLLIRNAPHLVHNLSFVVPLYDWWEGPFYGIGLKLYDVLAGKLGLGPSRLLSREETLGHIPTVEPHGLRGGVIYHDGQFDDSRLAISLALTLADLGGVALNHFPVTGIISRDGLVAGVEARDRETGGAFRIMGRAVINAAGPFVDGVRRLADPAARDLIAPSQGVHLVLDGSFLPGDSAIMVPHTDDGRVLFAVPWHGRTVVGTTDTPIPAAGLEPRPLPEEIDFLLSHAARYLTRHPERRDVLSTFAGIRPLVRSDSGGDTASLSRDHTLLVEGSGLVTIAGGKWTTYRKMGEDTVTAAAQVAGLDHRPSVTETLRIHGWQEDATEGPLQVYGSDAAALEQLLRENAAWREPLHPALPYCAGEVVWGVRHEWARTVEDVLARRTRALLLDARAAVAAAPRVAELMARELGRDSDWQAAQVAAFTHLARGYLPELEHHHHHH” the “soluble on expression in E. coli” value was “not soluble”.
For “MGSDKIHHHHHHMITDPQIKACIHQHHLFSALGEEELCRLLGQAAKITLAAHENLFYQGDLAKRFYLVIQGHLQLYRTSLQGQDKVIEVVREGRTFAEALMFSRQASYPVSAQAVSHCTLVSFDSEGYLAMLRGNPDACIAIMAEMSVRLRKDINEVELLSVQNAQSRLLLFLLRNMQKIGDNQGRVELDIPKRVLASRLSIQPETFSRLMKKMVTEGIIGESRGAIDIKDLAKLYTSANMPLANQAIQTSEPLIRSGKAPCQQIAIEMV”, the “soluble on expression in E. coli” value was “not soluble”.
In the case of “GPGSMSNNMLALPKVLLMGLRKSGKSSIQKVVFEGMQPHDSATLATTVQPEKSTVHSNDFVNFEVWDFPGQNDPFDSSNASRYDVNQLLENCGAIVYVLDCRELIDDARARLLDTISAAYRHNPELCVEVFIHKVDALSEDHQADLLASLQRRVEEEAKPLLENVQPLRLNFNLTSIYDHSVFQAFSLVVQKLIKSKTPYITELLQMLNSNSNIDLSYLFLSHSKIYVAVDERNRLKSRTYDLCSDAIEVVVKMSGIYMRQRDGVAGGVKDAFTDSVHSLAASATSRTIISSSLGSADGCASDVSELYRGANAVIQLSNEDCIYVRELPSSLTLVLMMKQTHLENRALIDRNVDIFYKAAFDIFSTSAS”, the “soluble on expression in E. coli” value is reported as “not soluble”.
For “MSGRGKVKSEPMKVVFINTQYVETDARSFKTVVQELTGKNAIVAAGPFDSPSAFDGRCYDGGSKIGEDTRQLHGGGGGGGRMGTTTEFDRLFKEMPHMEELYKLWSEY”, the “soluble on expression in E. coli” value was “soluble”.
With “AHHHHHHGSEFNIIIAGVGGQGGLTLSRIIGSAAMVEGYRVRIGETLGMSQRYGSVLSYLRFGDSVYSPLIEEGKANLMLALEPVEALRNAAFLGKGSYAIVNAYPIHTATTLVGKEKYPSLEEIKEALEKICRVEMMNFQKEADLINPRTTGVLMLGYAQGKGLLPLKKESIIEGIRLTLREKLWEINFKAFERGRELAKHVCCDV” the “soluble on expression in E. coli” value was “soluble”.
With “MRILLIHSDYIEYEVKDKAIKNPEPISEEEKKGRMDEVLVAFISVEKVDETNPEEVVSKAVEEIINVASQVKAENVFVYPFAHLSSELAKPSVAQEILRKVYEGLKEKGYNVGKAPFGYYKAFKISCKGHPLAELSRTIIPEGAKEEEVPEALKKEETELVSYWYILTPEGELIEVDKFDFTGYENLRKFANYEISKSRIAEKEPPHVKLMLEHELVDYEPGSDPGNLRYYPKGRLIKSLLEQYVTEKVIEYGAMEVETPVMYDFEHPALEKYLNRFPARQYIVLSGDKKYFLRFAACFGQFLISKDAVISYRHLPLRMYELTRYSFRREKRGELSGLRRLRAFTMPDMHTLAKDLEQAKDEFKKQFKLSMEVLKGVGLTPEDYEVAIRFTEDFWKENRDFIVELVKIIGKPVLIEMWKQRFFYFILKFEFNFVDNLDKAAALSTVQIDVENAERFGIKYYDENGEEKYPLILHCSPSGAIERVMYAILEKQAKLMQEGKKPMLPLWLSPIQVRVIPVSEEYLDYALYIAGKLEGARIRVDVDDEDERLNKKIRRAEKEWIPYIVVVGAKEKESGTITVRRREDGKQYETRLEELIKEIKEKVEGFPYKPRPLPLLLSKRPKFRG” the “soluble on expression in E. coli” value was “soluble”.
In the case of “MGSDKIHHHHHHMSDYLRGKRVVDPVLTSVARGYKNAAFVGESIFPIVQVEKEGIVVPLFGKGAFVEYDTERAVGAESNVLLREKSSSMDLVLNEHDLAAPVDYREQAESLFNEEAKAIRRATNGVNLKRELYAARLAQDPKVYLAASKKTLAAAERWANGKGEPVTVIEAGIEAVRNATGLRPNLLTMGASVMSVLRYHPAIQAQIGANERKRITAEILQDIFQINKVLIGEPVSSPDGKKAPIDVWADNLMLHYVSPPQPGTESADENEPSFGYTFRRKGMPVSDKYPGVGGKVSYARFTDIYKVAVVGGDAGYLITNILK”, the “soluble on expression in E. coli” value is reported as “not soluble”.
In the case of “MNQYSSFSPSSPSSSSRPSGGGGQSSHQTTPKSSGNPRQQQAQPRHRQRKAQSSSPASLAAFASSSVCSSPSARNVPLPPVEWLNQLQVPGQLENSSRPSSSISMTSSASSSTSSLSSSDAPMITMTPRRAAQKEMKPKTDVLGVRVCPLQLIAAIASA”, the “soluble on expression in E. coli” value is reported as “not soluble”.
For “MSKVKRKLKNIVRNIMLSETFANTNLVKNMRKNHKEKLEEGRRVLFKEHAKDCLETIKENLDKNNLHFWLDYGTLLGAMREKDFIAHDLDIDLGMFYENQVEEVEKAFKEANIKKVREFTLDGKVVEQTYSYKGLYFDIFYYFKDENLMWTYGFTFKNNKLNKVSYKDKDVSTGFEGMKYFVKKRGLEKIMFKGKEYTVPENPDGYLRENYGPNYMTPIKEWDYVEAPTNQEKLKGGDIVMIEYYNLEHHHHHH”, the “soluble on expression in E. coli” value was “soluble”.
For “MLQINRHILDNGLRLVHAQDTSTQMVALNILYNVGARDENPEHTGFAHLFEHLMFGGSVNIPDYDAPLQLAGGENNAWTNNDITNYYLTVPRQNVETGFWLESDRMLSLDFSERSLEVQRGVVMEEFKQRCLNQPYGDVGHLLRPLAYRVHPYQWPTIGKELSHIANATLEEVKDFFFRFYAPNNAVLAVTGNISFEEALHLTEKWFGPIPRREVPLRQLPPEPVQTEERRLVVERNVPLDSLFMAYHMCDRADSDYYAFDILSDILSNGRSSRLNQHLVQEKQLFSSIDAYISGTLDAGLFHISGKPAAGVSLEEAEAAVREELNELQSALIQEQELEKVKNKFESTQIFGNINYLNVATNLAWFELNGRAEDMEKEVERYRAVTADRLNAVAQTAFREENGVVLYYKSSRGEKDETYI”, the “soluble on expression in E. coli” value was “not soluble”.
In the case of “STLEIAGLVRKNLVQFGVGEKNGSVRWVMNALGVKDDWLLVPSHAYKFEKDYEMMEFYFNRGGTYYSISAGNVVIQSLDVGFQDVVLMKVPTIPKFRDITQHFIKKGDVPRALNRLATLVTTVNGTPMLISEGPLKMEEKATYVHKKNDGTTVDLTVDQAWRGKGEGLPGMCGGALVSSNQSIQNAILGIHVAGGNSILVAKLVTQEMFQNIDKKIESQ”, the “soluble on expression in E. coli” value is reported as “soluble”.
